Test results published in the NTF2 design screens of Basanta et al. (2020).

Test: protease stability score; higher = more stable; yeast display proteolysis, trypsin and chymotrypsin;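 also: relative to predicted unfolded state with 0 unfolded-like and 1 meaning tenfold more protease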

Sequence	protease stability score
DEHDESVRTAWEYYKRVIETGDEDISKKLADPHMKFEFENHSIHGWENIYRELTRLMREMRIHHVEIEHFRVYGDFVEIHIRVDGTVNGRRIITKMDLYITKIDGKWYLHSRRIE	0.543
DEHDEYLHHLLKVLWELIMTGDEHTFERLADPNVRLEVGNYFHVGRENIREMWKFLHDLLGVDHFRLHIRDLRVFNGVADAEYELRLNQGDKETRIEVRIYVHIVNGVLKSIRIETH	1.44
DEHDHILKRLSEELLHMMETGDEDALAELFDPHARMEYNGQEIHGRRDVERIRREILEKLGVDKIHTEVKEERFVGEKLEVHTHLHVDGVHFTVRIHWVKFNGRWVIRTLHIE	1.38
DEHDKETKEMLERFLEATETGNEKHSEELFDPRTRMEFDGVEIHGRETITKILTELWERADHIQFVLHDLRLVDGRVELDMRIRLHYDGQEYRRRSKVLLWKIDGRWVIRSERYE	1.99
DEHDKFVEEMARRHIRNLVTGDWEEQSRLMDPHVRIEIDINGRKREYHGREDWKYWLDELKRQFDHYEVRLRDFRIQGEYALFRLEESYIIGDKVIEQETELHIDVFNGRIRRVSFSVK	0.956
DEHDKHVHEMAERIMRSWHTGDEDTFHKMADPNVRVEIFVNGKNIIRHGREVWKHELERYDHVELRIKSMDAQGDFVHIDGELTINIGDKKHSTTLRIELEFINGRLKRISVHIH	1.05
DEHDKLLKELSERMFELWETGDEDRLHKLADPHALSRVGEFSIHGMRNHMEWLREWLRRVKNATIHVRDVDLQGNKSRFDHELIIDGVELKVIDNIVLVNGRIKEIRIEIN	0.027
DEHDKLMKDIAKLLLELWKTGDEEIFQHLMDPDTRMDVNGVQLHGMELIVKILRDEIHKIKNVKVLDKRNTVIGDKIHLDVEIVIGDKRIRMKLDVIVVNGRIKVFEIHTE	1.36
DEHDQHLKEWLDILLEVISTGDESRLQEMLDPNARLDVNGRKIHGRDEVLRAFHDHLDRFDHLHDLRIEHSNTVDGKAYIEGRDDGVVDGKRVFLRTRYFIITVNGKVHEVKIEID	1.92
DEHDRDARRFTDILLEAFMTGDEDLSHKMLDPNMRLHINGKIHHGRELATELLHEMRIERLVIEDYRIHYQGEKVHVTLHGRLHGRVDGKEHNSEVNIFINIEKVNGKWIVRSFTLKIH	1.47
DEHEDDARRMWELLEHDLQTGDEESIHRLVDPNAKVVYGDKEFVGREVLLRFASEWRVHLMHLDDIKIRTYGDKIDIDTTTITNGEFNGRKHVTRTHLRVHFEKVNGKWYVREVIIEIH	1.31
DEHEDHVLEVFRIILEILLTGDFREWRRLADPTVRLEFNGREYHGRDEILEFLTQHIRHWRLKHIHIDNYEVYDGRIEVHGHIRFTFNGKEHIIETRIIINVFDGRLHDEQYITH	1.53
DEHEDNLQHLIHVMTELFITGDWKELRHLIDPNALLHINGKDVHGWHLALEHIVRWREEMGVKHSHVERIHLQGDKTHLHMREHFNGRTVELEIRIIFVNGRLESHEMRIRNN	0.822
DEHEEAFREFLRLLLESLRTGDEHTLKRLIDPHARIDIDGQEFVGMEHLEHILKNMIKHIRYEDIEIEHFEFINGQVRFKTRYHGRINGKRDTLHIHIIITKINGKWVLEQLEFR	2.15
DEHEEALEEFLTEMIENIKTGDWHSELKLMDPHVRILFDGVIFHGREFFFQWLRHLLQRADHVNFTIDDKKYQGDKMVIETTFHLIINGQRIERYTVLLARKVNGRWYIEEVRLH	2.33
DEHEEASKLAIELLLTLERTGDEDKLRKLVDPNVRYDINGRELHGWEFMHRMIRHLRTEHVTIERVHVQGDWIHIDRILNVNVNGKEINIRTKINAQKINGVWIEREVEIQ	1.09
DEHEEDARRDLEKLARSLKTGDEDSLRTLFDPNTRNDVNGKDFIGWEELLRILREWRFHDMKVEDLEVQGNKVISHVRLDGTFDGRRDEMHVEIRAEKVNGRWRIRSYIVR	1.77
DEHEEDMERFLRELLDHWRTGDEDVIRELMDPHVKVDINGKIHHGREEAVHFLIEMRFRHFHVHDLRVQGEKADVDGRTHMEYNGRTVDQRITIHLVKIDGKWREKSITLE	1.24
DEHEEDVSKFTKMWEEDIRTGDEDSLYKMIDPHALLDFNGKEIIGREEVMHILHEELRELRIHNVHTHDIKVQGNKVNLNIRFNIEINGRIYDLQYKYDWRKINGRWFAHSEVIR	0.764
DEHEEDWRHVLKTLEDVMRTGDPHLFSHLADPHVRLRIDGRDHIGMELMWEILHKYKNITIEIEHSRVQGDKIEIRGTLDVDGRRYHVTIFADKINGKWIHREMEVT	1.18
DEHEEEAHKFVELKRRIWKTGDERLKSELADPNVKITFNGKELHGMEELIKVNREMGIKHVQIEDIDFQGNKVMVFGRSNIGDFNNRVEIIAEKYNGKWSLSEVRIH	0.322
DEHEEEAIRMLRLIFFLLHTGDWEVMHELFDPHARFTINGRRIHGMEEWLKFLREIRIEDSDIHVKRIDIQGDKMRIKGVVHLEGNVNGRREHTELHIDVHLEKVNGRWIIRLIEFK	2.35
DEHEEELKRILELIEHLIHTGDEDTMLHLADPNVRSHVNGRDRHGWNLYLRLLEELVWRLGIKHMEIHSTTAIDGRVIIHMRLHVGDKTIHVILLFQVVDGRVKSSSVEVHEE	1.44
DEHEEEVLRIARDFLEALRTGDEEHMTELMDPHVRLEVDGRDLHGREEVLRLLVEQWERIKNVTWEVERLEIVNGRLIIQLRVHVNGQNHDVRLYINVVDGVVKSIRHEKH	1.47
DEHEEEVREMHRVWVELLRTGDWRILAEMFDPNVRMHIGDKEHHGREAIEIHIEKFKNVRLEITRVHIQGEYIVIEGVINIDGKTHTLRFHFVLVNGRLKQYDEHSE	2

Sequence	protease stability score
DEHEEFAERNLKLLTELEETGNEDEIRKQADPHVRIEIGDKDIVGMHLWAKWVTHVKDRFDHIEVRLHRVHVQGDKILMHTQLILTQGNYRREFRTEVIIRKINGRWVLHSMHFH	1.42
DEHEEFLHRWAEQFLKNMITGDFDRLHELLDPHVRWRIGDKDSIGWKTIIDVVKDLLREIRIEDVTLHRIEVQGDKSIIVITTIVEIDGRRYRTTVIIRMRIIDGRLKSVDVEER	1.31
DEHEEHVHEITRLIIEAELTGDFERMKKMFDPNAKLILLINGREDTNHGMDFVRFWLKEHLERVDHRRVELKRWDVVNGVSHNDVTLHLEVGEWKITVKMHLHIVVVDGRLKSIKIEIR	1.4
DEHEEHWREMFERWLFALITGDEETLHKLLDPNVKMDINGQHHVGREQVLHEFRKFHDVLGVKVSRNFHVKDKEVQGDKLHLTIEFRGEFNGKEEITQARIVIVKINGRWTIERVELE	1.97
DEHEEISRRLAEFENEWINTGDEESFARNADPDVRIHVGEFHSHGREEMIRILKEFFRWLGVKHFRPTHIEIQGEKVIIYLEWHFDGRTHRIQIISVVVDGRRKSFQVHKL	0.185
DEHEEKIHFILHILQEAWRTGDESQLENLLDPNVRIIIGDKKTHGREAVINLFNHWRVENIRVHLRDVRVQGDKIHLETEIQVDGNVNGKTDRIEFETEFIIRKVDGRWLIEVIRMH	2.17
DEHEEKLIKHMESLLHWEETGDEESMLKNADPNARHDVNGVEFHGMHRFVHHVIKRGWRFRMEVEHVDAFDGRYRVEGTLILNFDGVEHRHHVILRFIVIDGRLHERKVEVR	1.46
DEHEELIMEFLRRLLEWHLTGDEEYISRNFDPNTQFDILIGDKRYHIHGREEIHEWLHEFLRELRVHIIVHEMRAQGDKAHNRGTLNLTYGDKRRTVDVHIFIVVVNGRYKKIIVQVK	1.62
DEHEELLEHIIRLWLKYIHTGDFRNWMKYADPNAKWRTENHEHHGREEIARDLHEFNKKLGMEFRIDLRHFEIQGDKVRMHTEYILHIGDYTERRETEVTVIIVDGKIKSIRLLVR	1.67
DEHEELLRRIFELLLHALKTGDEDLLYKMADPNTRSIIGDKIHHGMEEHRKAVEKWLREMGVKHIEIKRVHIQGEKIHIDTHWKVGDKSETVKINIHVIDGRLTEIHIEIE	1
DEHEELLRRLADEWFKSLLTGDEDRLLELADPNMRIRLLINGRDEKIHGWEELVRWFREIRFRSMDIDSFTLVNGKIQIRFKYRGRVNGQTHETRSEFLLIVIDGKVTHVEVRLE	2.46
DEHEELMEEFMRKILHAWLTGDWDLINEMADPDVRTNINGRNEIGREEFEKLWQEIRFRRFDLKRWHVFNGVIHIDGHIDGEVNGRRTKRDVLIRLFIFNGRLKKEEVEYL	1.55
DEHEELMRRLMQLWMENWLTGDEDVLYKLADPNAKWDINGVKLHGREKMNEDRKEILERHGATFYLEIRDFTVINGRAHVDGHEDYIINGKRIRTDVQIILVIVNGKFKSEEVKIR	0.292
DEHEELMRTLAEIVLRIFLTGDWDSFSKLADPNYRIDWNGRHTHGMHLAERVLREIHRQIRIDNVILQDMRIQGNKVHNHGTIDGNINGVHDKVQTHVHLILVDGRLKEVEFRHH	-0.231
DEHEEMFTKLMRELIHIWLTGDEDILNHMADPNVLVEINGRREHGREALSRFLEKFKNVRIHLHSSTAIGEKSIIDTQININGKQIKVRVEIYMVDGKIKEIRLDIQ	1.29
DEHEEMVRIFIKLFIHNSHTGNEEELTRMADPHTKVDVNGKEYIGREEWRRFFMELGVDHVEVRRVHVQGEKAEVDLELNIDGRVIRFHIYTLKINGKWIIKSLEVR	1.78
DEHEENVRKDIKEHEETEKTGDEKAYLEMADPHVKVDIDGVDLHGMERVTNFYRELLHKFPNIRIHTRHVDVQGEKVHVETELEWNGVKLETELVWVKINGRWLTHEIHIR	1.2
DEHEEQIEEFWRITVDQWMTGNEELIETYLDPNARVDINGKQTHGREQVTRLMLREMKHMRIKSIKLRRVRIVDGRVDLDGTLHGEVNGREFVLESHVHAEKFDGRWLIRTIKVN	2.23
DEHEEQVRRFLHHLWRSVQTGDEHELANNFDPNTRVDVGDKHLHGMERFVYLIFEFARHWRIRHTTLHFIVRIGEFIEVDHILDGEIDGRRREVKMTIIIFKVDGRWIIRSMEVK	1.82
DEHEERLEHWAEVIIRSWITGDESLFRHLFDPHVRTEVNGVERHGRDEAVKMERLIREHLGVKHEEIKDYHVQGDKIHVDSRVDVNGVKINTRIHVLVVNGRIKEVRFEFD	0.841
DEHEESAEWHSELMIRSMETGDEDLFEHLLDPRARFHINGQDIHGRDSISHFLSRRLKDMGFKHSSLKTVTIEVQGEWVYLRIKVILIVDGRHLDTEIIIISRKIDGVWHVHSMEIRFR	1.34
DEHEESVIWLLDVMFDAWRTGDEERVRRYLDPNVRIEVDGVSIHGRERVVEHLRRIDHLSVERVEIHHSTVINGVARTDGHVLLEFNIGDKHFRIERKSDSIVEKIDGRWIVHELTYR	0.202
DEHEETIKRLAEIMEKWWFTGDEDALRLLLDPHVRIHLHQGDFNLDLIGMEHLRRLIHELIRKLGIDHSILKDRDIQGDKVTIHMELRIGDKTVTSHITMVMINGRLESFKIHFK	1.32
DEHEETMHWALEVIEEFLQTGDERLMEENLDPNVRLEYGDKILVGRELFLELLRRLVEKYKNIRINIHDIKLYDGRLYLDVELRYGDFRSTTRIFSEKYNGRWVDRSYHVE	1.71
DEHEEYMEELVKSIYTLWKTGDEDTLLSLFDPNMRILIDGVDAVGRENFKEEFRRFKEEIRHKDHKIHHIDIQGEKIRTEVLVHGIWDGVDTTLHVEIRIVVINGRVKSIEFHFT	1.74
